Patent publication US20210277102A1, “COMPOSITIONS AND METHODS FOR TREATING A TUMOR SUPPRESSOR DEFICIENT CANCER” (BETH ISRAEL DEACONESS MEDICAL CENTER, INC., priority 2016, published 2021)

What was measured:
GPR35 [1] = target: T1, GPR35 (Homo sapiens, UniProt Q9HC97); details: in vitro; cited from earlier work
Target sequence in this assay (Q9HC97 whole entry): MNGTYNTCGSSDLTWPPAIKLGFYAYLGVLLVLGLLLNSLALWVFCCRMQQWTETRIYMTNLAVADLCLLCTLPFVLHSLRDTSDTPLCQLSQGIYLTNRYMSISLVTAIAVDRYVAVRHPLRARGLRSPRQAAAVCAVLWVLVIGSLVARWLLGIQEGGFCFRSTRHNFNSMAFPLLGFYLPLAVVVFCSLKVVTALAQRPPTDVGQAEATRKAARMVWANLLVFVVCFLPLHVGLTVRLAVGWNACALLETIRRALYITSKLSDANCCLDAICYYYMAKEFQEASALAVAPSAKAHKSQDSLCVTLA

mouse GPR35 = mouse GPR35 (Mus musculus, UniProt Q9ES90); details: in vitro; cited from earlier work
prostate cancer = details: phase III clinical trial in prostate cancer, unselected patients; cited from earlier work
[2] = test system: Gr1+ cells isolated from the bone marrow of healthy mice; assay: Transwell migration assay with recombinant proteins, Gr1+ cells; format: cell-based, mouse; details: Gr1+ cells mostly Ly6G+/Ly6C^int PMN cells; increasing concentration of recombinant protein
Source text: (§1) Gr1+ cells and monocytes were isolated from the bone marrow (tibias and femurs) of C57BL/6 wild type, 3 months old mice using the MACS Myltenyi Biotec Cell Isolation system according to the manufacturer's instruction. For monocytes isolation the Monocyte Isolation Kit (BM) (Miltenyi 130-100-629) was used, whereas Gr1 positive cells were isolated using the antibody Anti-Gr-1-Biotin, clone RB6-8C5 (Miltenyi 130-101-894). Red blood cells were lysed with the ACK lysis buffer (ThermoFisher Scientific A1049201). Total bone marrow cells and Gr1+ cells were cultured for 4 days. Briefly, 40 ng/ml GM-CSF (PeproTech #315-03) and 40 ng/ml IL-6 (PeproTech #216-16) were added to the control medium RPMI 1640 (ThermoFisher Scientific 11875-093), supplemented with penicillin-streptomycin, 10% FBS, 10 mM HEPES, 20 μM 2-Mercaptoethanol. Either recombinant mouse CXCL5 (BioLegend #573302) or recombinant mouse CXCL17 (BioLegend #585402) was added at the beginning of the experiment (200 nM). For the migration assay 2.5×10^5 MACS sorted cells were resuspended in 100 μL of either RPMI 1640 control medium or organoid complete medium and placed on the upper well of the transwell system (5 μm, Corning #160241). […] The migration of cells was quantified by flow cytometry, 15 seconds acquisition time, using BD LSR II flow cytometer.

[3] = test system: whole bone marrow (BM) mouse cells and Gr1+ cells isolated from the BM; assay: 4-day culture of bone marrow and Gr1+ cells in GM-CSF, IL-6 medium plus recombinant chemokine (flow analysis, qRT-PCR); format: cell-based; details: 4 days culture, GM-CSF and IL-6, recombinant chemokine 200 nM
Source text: Gr1+ cells and monocytes were isolated from the bone marrow (tibias and femurs) of C57BL/6 wild type, 3 months old mice using the MACS Myltenyi Biotec Cell Isolation system according to the manufacturer's instruction. For monocytes isolation the Monocyte Isolation Kit (BM) (Miltenyi 130-100-629) was used, whereas Gr1 positive cells were isolated using the antibody Anti-Gr-1-Biotin, clone RB6-8C5 (Miltenyi 130-101-894). Red blood cells were lysed with the ACK lysis buffer (ThermoFisher Scientific A1049201). Total bone marrow cells and Gr1+ cells were cultured for 4 days. Briefly, 40 ng/ml GM-CSF (PeproTech #315-03) and 40 ng/ml IL-6 (PeproTech #216-16) were added to the control medium RPMI 1640 (ThermoFisher Scientific 11875-093), supplemented with penicillin-streptomycin, 10% FBS, 10 mM HEPES, 20 μM 2-Mercaptoethanol. Either recombinant mouse CXCL5 (BioLegend #573302) or recombinant mouse CXCL17 (BioLegend #585402) was added at the beginning of the experiment (200 nM). For the migration assay 2.5×10^5 MACS sorted cells were resuspended in 100 μL of either RPMI 1640 control medium or organoid complete medium and placed on the upper well of the transwell system (5 μm, Corning #160241). The migration assay with recombinant proteins was performed by adding to the bottom well 600 μL of RMPI1640 control medium supplemented with the indicated amount of either CXCL5 or CXCL17. The migration assay with organoid conditioned medium was performed by adding to the bottom well 600 μL of medium collected over 5 days of culture of prostate organoids with the indicated genotype. The migration of cells was quantified by flow cytometry, 15 seconds acquisition time, using BD LSR II flow cytometer.
For Flow Cytometry, spleen and lymph node single cell suspensions were prepared by mashing the tissue in 2% FBS/PBS. Tumor and control prostate tissue (from anterior lobes) single cell suspension was prepared by mincing the tumor and digestion with Collagenase Type I (Life Technologies #17018029) in 10% DMEM (GIBCO) for 1 hr at 37° C. Cell suspensions were passed through […] cell strainers to obtain single cell suspensions. Blood samples and single cell suspensions were re-suspended in 1-2 ml of ACK red cell lysis buffer (GIBCO) and lysed on ice for 1 minute. Cell suspensions were then washed in 2% FBS/PBS, centrifuged and re-suspended in 0.5-1 ml of 2% FBS/PBS. For flow cytometry, 100 μl of cell suspension was stained in a 96-well U-bottom plate and the following antibodies were used: CD45.2-Pacific Blue (BioLegend #109820), CD45.2-APC (eBioscience #17-0454-82), CD45.2-FITC (eBioscience #11-0454-85), Gr-1-FITC (eBioscience #11-5931), Gr-1-PE (eBioscience #12-5931-81), CD11b-PECy7 (eBioscience #25-0112), CD11b-FITC (eBioscience #11-0112-82), Ly6C-PE (eBioscience #12-5932-80), Ly6G-APC-Cy7 (BioLegend #127623), Ly6G-APC (BioLegend #127613), CD3-PE (eBioscience #12-0031), CD4-APC (BioLegend #100515), CD4-PE-Cy7 (eBioscience #25-0042-82), CD8-APC (BioLegend #100721), CD8-FITC (eBioscience #11-0081-85), B220-FITC (eBioscience #11-0452), CD19-PerCP-Cy5.5 (eBioscience #45-0193), F4/80-APC (eBioscience #17-4801), CD44-FITC (BD Pharmingen #561859), CD62L-APC (BioLegend #104411), CD206-PE (BioLegend #141705) and CD49f-APC (eBioscience #17-0495). All antibodies were used 1:100. To assess cell viability, cells were incubated with either DAPI or TO-PRO3 prior to FACS analysis. Foxp3 staining was done using FOXP3 Fix/Perm Buffer Set (BioLegend) and cells were stained by Foxp3-FITC antibody (eBioscience #11-5773). All staining mixtures were analyzed on a BD LSR II flow cytometer (Becton Dickinson). Resulting profiles were further processed and analyzed using the FlowJo 8.7 software.
Microarray analysis and gene set enrichment analysis on mouse tumor tissue were conducted and analyzed as previously described by Palucka, A. K. et al. (Palucka, A. K. et al. Cell 164, 1233-1247 (2016)). […]

[4] = test system: monocytes isolated from the bone marrow of healthy mice; assay: Transwell migration assay with recombinant proteins, monocytes; format: cell-based, mouse; details: increasing concentration of recombinant protein in bottom well
Source text: as §1

GPR35 [5] = target: T1, GPR35; details: cited from earlier work
Target sequence in this assay (Q9HC97 whole entry, species assumed): as the sequence (Q9HC97 whole entry) above

mouse GPR35, sequence (Q9ES90 whole entry): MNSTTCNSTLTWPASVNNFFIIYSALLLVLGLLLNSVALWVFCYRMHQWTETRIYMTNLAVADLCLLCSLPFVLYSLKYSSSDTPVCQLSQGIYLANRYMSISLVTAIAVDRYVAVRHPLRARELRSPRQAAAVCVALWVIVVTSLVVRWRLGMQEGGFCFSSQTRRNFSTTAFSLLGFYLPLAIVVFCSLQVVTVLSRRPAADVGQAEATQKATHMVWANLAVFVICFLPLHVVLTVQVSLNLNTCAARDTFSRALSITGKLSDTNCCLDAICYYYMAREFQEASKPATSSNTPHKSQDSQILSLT

Molecule | antagonist activity at mouse GPR35 (mouse GPR35) | migration of Gr1+ cells toward medium with recombinant protein [2] | expression of the Ly6C and Ly6G markers (flow analysis) [3] | expression profile of the genes tested (qRT-PCR) [3] | further results
COC(=O)c1cnn(-c2ccc(F)cc2F)c1/C=N/NC(=S)NC(C)(C)C [CID2745687] | in vitro antagonist activity | – | – | – | antagonist activity at human GPR35 (GPR35 [1]): in vitro antagonist activity
CC(/C=C1\SC(=S)N(CCCC(=O)Nc2ccc(C(=O)O)c(O)c2)C1=O)=C\c1ccccc1 [ML145] | in vitro antagonist activity | – | – | – | –
COc1cccc2c1c(O)c(C(=O)N(C)c1ccc(C(F)(F)F)cc1)c(=O)n2C [Tasquinimod] | – | – | – | – | survival benefit (prostate cancer): failed to show a clear survival benefit
CXCL5: recombinant mouse CXCL5 (BioLegend #573302) (protein, UniProt P50228 41-132, looked up) C-X-C motif chemokine 5: APSSVIAATELRCVCLTVTPKINPKLIANLEVIPAGPQCPTVEVIAKLKNQKEVCLDPEAPVIKKIIQKILGSDKKKAKRNALAVERTASVQ | – | chemoattractants for PMN | did not observe any significant difference | did not observe any significant difference | expression of the Ly6C and Ly6G markers (flow analysis) ([3]; listed as recombinant CXCL5): did not show significant changes
CXCL17: recombinant mouse CXCL17 (BioLegend #585402); chemokine ligand of GPR35 (protein, UniProt Q5UW37 23-119, looked up) C-X-C motif chemokine 17: SPNPGVARSHGDQHLAPRRWLLEGGQECECKDWFLQAPKRKATAVLGPPRKQCPCDHVKGREKKNRHQKHHRKSQRPSRACQQFLKRCHLASFALPL | – | only on monocytes | did not observe any significant difference | did not observe any significant difference | expression of the Ly6C and Ly6G markers (flow analysis) ([3]; listed as recombinant CXCL17): did not show significant changes; migration of monocytes toward medium with recombinant protein [4]: concentration-dependent effect; concentration range of GPR35-CXCL17 mediated functional responses (GPR35 [5]): ~50 nM
